According to the NTF2 design screens of Basanta et al. (2020):

assay: protease stability score; higher = more stable; yeast display proteolysis, trypsin and chymotrypsin;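 note: log10 excess protease needed over predicted unfolded state with 0 meaning unfolded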

Sequence	protease stability score
DEERVKQLAEKAFKAIQNNDQEKLEKMGKPNVQYEYVDKKYEGPEVVKVVIKVVQKIGAKLETQEQEVKGDTARATFQYKNGDKTMQTTAEVRYKGDKMEEFRMELSDEVKKVVHQG	-0.207
DEERVKQLAEKVFKYVIKGDKDEVRKQGKPDVKYKYIDKEYEGPDALEKAVKLVKRLGMKAETKELKVKGNTVRAKFEYRKGDQTMKTEVEVHYEGDVVKEAKVKISDEVKKFVHQG	0.309
DEERVKQVQKKAFEAVMKGNDDEMRKIGKPNVRYEYIDEKNEGQEAVDVVIQLVKKVGAEAKVRRTEVKGDTVRAIFVYNDGDQTVQTKVEVKYEGDKVKEARVELTDEVQKVLHKG	-0.027
DEERVNDIAHKIAQNLRTNDEEQLVRMMDENAKVTVGEHRIDGREQIRTMWHKIKQHVDHVEVKHVEARGDRIRIIIVLNHNGRQRTIVMYVSIHNGHIKVLKIESQ	1.51
DEERVQQMLEQAFKAIQNGNEEQMQKLGKPNVEYKYVDHEYEGPDAARVMVQLVKRVGAEVKQQKVEVKGNTATAVFQYHDGDQTVETTAEVEYEGDKMKKARVELTDEVKKVVHKG	-0.117
DEERVRKVVEKLVDAVTRGDKDDIKKMLKKHVEFKLVDQEYKGVDQAVKVVKELHDYGMEVHVKEVRVKGDTAHATTVWKKGNTEAHVKVEYHVRDDKVEKVKIQWTEEAQKALKHG	0.283
DEERVRQIADKMFKAIISGNSKDVQQVVKPNIQYEYGDEKYQGPKVVDQLVKVVKKIGAEVREREKTVHGDTMTAVFQYHKGDTTVQTEAEVKYEGDKAKRLRVKLSEEAQKVIKQG	-0.114
DEERYKQLMEKAFKMIKQGNEEEARKLLKPDVEYHYADKTFRGEEAAQFIVKVVQKLGAEDHNQRQEVNGDTMKADFRYTQGDQTVQTKAEVIYKGDKATEARVEMSDEVKKVLDQG	-0.052
DEERYKRLFEKVFKVVQNGNKDELKKLLAPNVEYNYVDKTYEGEEAAKAVVQLVKKVGAKAKQQKVEVKGDTATAHFQYENGDQRVETQAELHYEGDKVKKVQVKLTDEVKKVVHQG	0.356
DEESDKKFLEKIRKLFEDGDPDQFRKMFPPDATAVIGDKSVHGNQVEQAVNTFEKNRADHVRIDSFEVSNGRVDIDVVVNHNGEERRIKIVFIARNGRLEHMRFVST	0.215
DEESKKQIDNWLKAVQQGDPDQLVKNVDKDVTVEYGDKSIHGRESLMKTLEDKKKQWRLEFKSVDVDVHGDKARLDVDVVLQINGQPFRHTRTIHVHLHNGRVKHMRFRFDEQQQRDMDR	1.12
DEESLAKEFIKHVNDNADTGNPDDMAELFDPNARIEVGDKKYDGHKDITKLNEELNREADHIKYTINSVKRDGDFVRLDIEVRMDVNGKDVNHRYRANVAVTNGRLVVRSLTSS	0.891
DEESLDHLRKVLEKNDPDQLTELMDPDATAVIGNTEVHGREKVVTIMRRIYERADSIHIDRFSHQGDRLVADMQVNINGKKMRYEYVIRVHNGRIKYVKFHVTSEDVERDLTRAVS	1.67
DEESLRKFAKRVFRALQTGNPEDIHRLFDKDAHFVVGDKEVHGREQAIKFLSHIRRRADRISLKRMSVRGDKVSIDLQMTVDGHRTRFIVYIQVHNGRARRLKIEEN	1.57
DEESMHRMVTDLMHIIDSGNPDEAVKLADPNVQVTYGDRKYHGQDAVRDYIRELKKRVDTVNLKRVELSGEKATATAVFNVNGNRVDVEMTVTAQNGKIQSIDASVRDPDQKRKEKK	0.8
DEESNHDVARKLMRALETGDPDKLRELADKHARITVGEKTIHGREDASRFAKELRDRIDHATVKHMDVDGNKVVINMTVRVNGRDLEVFVTAIVTNGRIKHIRFQYTDEDKNKEVEG	1.18
DEESQARKFIKQYHDVLETGDENEARRLADENVKVHVGEFHYRGSDQYAHAVKRLRNKVDHIHMTLTEISVSNGEVNVVLKVVLNYNGTNDSFKMTMRADRVNGTLVLVEVKNG	0.389
DEESQKQMMKEMSDVWKHNDPDEAQKLADKDVKIRYGDREYHGREDFVSAMREFSKQADSITVKHMTVQGDKIVLDIIIQYDGQHREIVVIVHVHNGRIQELQIQDG	0.637
DEESRAQSFMSKFNDNLRRGDPEKLKTYMDPNVKVQVGEKRLNGREQAARFWVEIARHVDHISVEFKSLKVTGDKIKAKAIVVLDVNGQKRRQDVVLYAQIQGDTIRLKKVDAP	1.07
DEESREQQVHHMMEAIKTGDEDRARTLMDKDASLQVGDKVFQGRKEAAKAVSEIVRRVDRFRVDSVTVSGNQVDAKVQFEVNGRNMQATIRIQMHNGRIQHLVIEFRDPNQYREVKK	1.05
DEESRRKQAQEFNENLEQGNFEELMKLLDPNAHIIIGEKEVKGREDIRKQQEEDQRRIDHVQIQSVTAHGDKIRALIRFTVNGQQTEVHVVLSFHNGRVKEMKIHTK	-0.324
DEESVQTFAQQRRQGNFEELIKMMDPNVEMKVGDKTWTGREQVQTALEHLKERVDRIQIDHMDVKGNHVDIDYVLNFNGRNVKATQKIEMKNGSAKRIQIDATNEENEKELKKAFS	-0.163
DEETAEQVMRELNRLLKNGNPDEMMTMMDKDARIEVGDKTYHGRDDIRRQNKEDRRRVDRFEVTSVDVRGDKADIDARFQFNGKTKRYQLFAKFHNGRVKHLEIEDK	0.034
DEETAQKIVEKLATGDEEQKREQMDKDVTVVIGDKELRGRETIVNQLRKIRKQVDHLEVKTYSAHNGRAEIVMRMQVNGRTMEYSIRVQVHNGRIQHIKFRVRNHEVQELLDRLLS	0.464
DEETDAKKAKDDMQHVANTNNPKDRETLLDENAEIVVGDEKYQGRHDVQKLNQEIEKRVDEVRVEVTEVTIQGDKLHVDAVFRVRVNGKTEQDRKVIVMDIHNGSVKVRFIHQP	0.94

Sequence	protease stability score
DEETDEKVAKTLMRIMRTGDPKQYADQADEEVRVVVGDQTYTGRESVSEAFEEWTERVDHLEIKDIRVHGEKVNIDAVVDINGHQRKIEFSMTLHNGRIKELVYTDG	-0.598
DEETEDKARRFVEAFHTGDPKNINRLMDKDARMKYGDTTVHGRHQIDKWIKELKDEIRIELDRVEIRADNGRVTAELDMVFDVNGKPVKHTLVFIFQFHNGRMHEVKIRIDEDVLRKLKR	0.746
DEETHANEFLKTREKALTSNDETELRRLVPPDVRFQVGDKQIHGREEWARKLKDDRTRVDHVTVRVVSITVRPNHIKVNLQEEVVVNGTRSRDRYEAHIVNENGHMQMHSFRQQ	-0.396
DEETIKHLVKVLEDGDKKRFQKLADPNVRMRVGDKQVHGREKAATLWQHFMDSVDHFFIDHVHIDGEKAHIRADLVVNGQRDTVSIDIKVHNGRIKDVVLRFRDPDYKRKVEKVLG	1.56
DEETIRHEARKFQEDMKDGNHDEAVKYAPPNVKIQIGDKTFHGREQMKRFFKELRDEIDHVDLEHVTFHNGRLRVEVRFKINGQDFQVVFYFNYHNGQIENFKVQYRNEEEQQKVEG	0.182
DEETKAHKWAEKFQRALKDGDPKKMENLMDKNVKAQYGDKTIHGDEEANSWVRRMKHQVDHVSATITRVEADNGKVIVRMTVVVDHNGREQRYEVNLEAKDHNGHIHLTRLKVG	0.262
DEETKAREFIKKVQNVMRTNNPEDFVKQFDPNARMVVGDKSYHGRDDVRKWAQDLFRRADHVSMSVKRLSVHNGRFHMQADLEVHVNGHREEVKVVMNAKDENGQILIKHARFE	1.77
DEETKARHQIKHMNKLAQTGQLHEVAKQADPNAEFRIGDKTLRGRDNFVRQVKETADTVDHFDVQVRRVHVKGDKAKANIDLRFDVNGKQERRTLRFSAVMDNGEVVVRFMQIN	-0.03
DEETKDWVDRFFQALHKNNEEELEQLMDPNAHINIGDKVWHGREEFRREHERQAKHWRFTQDITRIDVKGNKARLRVRFRMNYDGKPKDSKARIEIIIHNGKLKEYRQKDDG	0.351
DEETLHDVLRHLKHGDPDTIDRMADENAKAVIGNQEIHGREEISKIAKDLERKVDHQEVHKVEIDGDKATVTYRQNVNGRTVYMYVIVQNHDGHIKYVVIKARDEDEMRKWEENLS	0.742
DEETLRQANRKIQEFLSTNNFDELAKQMDKDVQIRIGDKEVHGRKDAQKMLTDIKDDADHASVHHVDVRGDKAKVRFEVNHNGSVKDVTVTITFHNGRIKRAKWHDT	0.089
DEETNKKFASELVHVLRTGDDERLKSMADENATLEVGDKTFHGREEMRKAAEEWQKEIDDLKIESLHVNGDKVVIHFVFTVNGRTDRQIMHLHFDNGKIKSAKMHSG	0.96
DEETNQELLERLIDLISHGDEDEFNRQADEEAKAQYGDTRYHGREEVVKAIKTLADRVDHWHIESYHVHGNEMVIDMRWTVNGRTRRANIVMEAENGRIKYVQMDDQ	0.765
DEETQFKKLMETMKEQNKRGDPRKHEEYVDPNAKVRVGDQDLHGREDVRRVLQEWAERADHVDLKVESMSVHNGKQTAIMVIVLRYNGRNETRRVQVVFDKSNGTVRLVNLRNS	0.856
DEETQNTRMEEFFKALKTGDEDRAVELADENVKIEIGDRSVSGREVVRHYVQDFQRRVDHNEIKSMRVHNGRAEVTMVVNHNGTTDTRVVHLEAENGRVRRISVDHP	0.448
DEETRKRVETLLEALETGNPEEISKQIDPNATVVVGDKTLHGREDIRDWVRRQHEKIRVEYKHVQIRIHNGRAHVTFEAVVEVNGKPKTVRAQMVFTVSNGKFQHIELHLDEEWKKMEKG	1.38
DEETTDILNELLRAYQNNDSKRIVELADPNASANIGDKQYHGMEDAARTQVKRMRQIHVEIKHVSSDNQGEKIELEMRFVDNHNGKPEQSTRNMTVVMKNGKVDKFTIRDDG	0.085
DEEVADNFRKLLHNLEQGDKRRVKEMVDENAHIVVGDKVYHGWETAAQDLVRLMHEIHFTITSVHVEVSNGRVRLKVHMKINVNGKPFRMVFTQEIEAENGTVKYINVQFDPEVLRRIES	0.97
DEEVAEQAAKLLEHNDFEKLVDMVDPNVDVEYGDKTVSGRNRVKRVMEKWTRRYDHYEIHTYSISNGRLSADVRAVVNGREVRYVQTIRVHNGRIQKMKIDVTDEDDERNLRKLES	-0.161
DEEVAKKMMEAWMKALQNGNDEQMKKLYDPTVRWEDGNTEKQGLEVVVKLVQTVKKKGIEFQVRKAKVKGNQVEVHYDMKVGDDTVTFTVQFRAQGGRIQEVRVEISEEARKAVKKG	1.22
DEEVAKKMMETWQKVVQKGNDKDARELYKPNGEWVDGDEKHQGVDYVVKALQRVKKYGAEFQVRKAKVEGDTATMVYDLRIGDKTVTFVVQMQADGGRVERVQVKMNEEAKKAVTHG	0.786
DEEVAKRMAETWVKAVEKGDTDQVQKVYKPNVEWVAGDEKHQGVEVVKKMMQKVKKLGVEFQLRKRKVEGGTVEFHYDMKNGNDTVTFTVRIDAEGGRVDRVEVEFDEKAQKVVKKG	0.183
DEEVAKTMAEQWIKAVQKGDKEKLVKHYKPNVQWIDGDERTQGTDVVRKVMETAQKRGVEFQVRKRKVEGDQFEIVYDANVGNKTATFDIKFQVKGGKMEEMRVEVDERAKKVRKEG	0.094
DEEVANTAVKVAQTGDFQQMVEHADPNVRAVVGDKEYHGREQFQEAMTIIRERVDHYHVDKITIEGDDVRVDMQIDFNGRRVRAEVSIRASNGRIKEMHINARDEDDHRTLRKLLK	0.432
DEEVAQDVRRNVERGDWKRWAELADENARVSVGDNTYEGRNDWHKYVKDLEHQVDHFEVKHITIENGKIKVDFVLTVNGHEVRMKQVIVVTNGRISRLRIQATDTDVQRQLNEAMR	-0.066
